# Assay: soluble fraction after stress (log2 fold change); higher = more stays soluble; pooled small domains, quantitative proteomics
# Conditions: stress: pH 4
# How it was run: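 Values are on a log2 scale, where higher means more of the domain stayed soluble after pH 4 stress. They are fold changes in the soluble amount of each domain from pooled custom libraries, measured by high-throughput quantitative proteomics. The fold change is taken to reflect aggregation propensity.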
row,Sequence,soluble fraction (log2)
1,HMHTDQVLVMTRAVGQGEIVRNTDVGLTSVAVDRAVTTIPASQLDEIVGRHALVDLSAGQLLGSHSVGA,-0.0551
2,HMHTNNALWAIADDMRARKDDGEFDTYREGYKWAANNIVKEGIHITAIKLEKAYHKAKSEGKV,0.301
3,HMHVSIAENIRRIRTQHDMTQEEFGKVAAVSAMAVSQWENGRAVPRMGAVQRIADYFNISKGEVID,0.121
4,HMHWDIAQADAKQEVMDSSDDKEAIERIQANMFKDPKDHDQEYANKILNDMIDEIKEKGLEAMQHKFAQE,≥ 0.43
5,HMHYELTPDAEKQLSALGLTAELVERILEEANDRRPIPGTNRTVYSLHGYSVEFSNTNHKIVSVRKG,0.343
6,HMIAAPFVVKDIRVDGVQPATGEAIISSLPVKVGQTATDADVSNVVRQLFSLNRFQNVQATREGNTLVIKV,0.0417
7,HMIAGHLQIKNDYYYMVLSYTDSDGKRKQPWIPTGLPMKGNKKRAEKMLIETRQTYVPPVSSG,0.203
8,HMIAIGDDARLDDAARFFRIAEDSYAAGDYRKSKENYIEARKLYAELGDHEKVNLINSKISAIDSIT,-0.0121
9,HMIAVIKPSATAEQKAGLVDWIRGQGIDVHISEGHDYTVLGLIGDTSKIDMDLIASLDIVDSVKRVA,-0.168
10,HMIDAHTTLLAKRLESKGFLALTDKSSAEEIYEEFGISKKAFKKALGALYKERLVRIGEDGVVWM,-0.721
11,HMIDDPTAVILRLVSEKQVIRRDDVVKALSVTPQKAYRLLKTMTTGGLLTRSGARRTTVYGLPDARER,0.22
12,HMIDEKVQAADKSIEIGNLSPLKGLVTDDEMHELEKLFEKVMALKDFEVNDVGAGRKYIEAYVSFFKFAEG,-0.847
13,HMIDELNVGDIRFYLNRYGKEIQIEIIRIGDDGSVYARTMADNALFRVPEARLKNIGEKVPAEEVQRG,-0.348
14,HMIDFTHEDIERLWNAIVHYVPERQKSDMAIDFIKSLEDIGVEHDEIKASAEYDPKLEEAINTVY,-0.357
15,HMIDIDNLEKAAILLLSMGTEAAAKVMQKLSRDEVQRLISKMASLSGVSSIEAKWTLQQFFNQYREQSG,-0.832
16,HMIDLSELINKTGSAYTNLRPSGTAVIGDDRVDVVTEGTFVEKDRPVKVVAVEGQRVVVREVE,-0.206
17,HMIDMQIDTARFGTLGVDDDKIITFPKGLPGFEDERRFFLMDHSGSSKIKWLHSADNPGLALV,-0.541
18,HMIDVGSKIRSLRKSKNISISTLAKNSDLSTGLISQIERNMVVPSIVAMWKISKALDINIGYFFE,-0.109
19,HMIEDMQQYIKEIRQMVSGRLDMTRNLEDEEIRDTIAELVAEESRKQYMTLTEKREVIEGVFNSMR,-0.687
20,HMIEEIAVPEILGMQEEEAKAKIEGLGLVFNVTDRVKSNEYEKGEVMYQSVGPDDTTVKSGYPINVTISEG,-0.162
21,HMIEEIPYSQFMSMLEEGKIDKAEIYQDSIIFSTKPDEQGKAGYYSIAYMKDNVLADRLYDAGVEFTPII,-1.4
22,HMIEGEQVRLLRLLERQEGGMLPLGDKSPASDILLLTGMSKKTFKMAVGALYKAQMITMTPTSIKLVK,0.386
23,HMIEGETPEQTMERVSKDPEIVQILQDPVMQGILAQARENPAALQDHMKNPEVYKKINMLIAAGVIRT,-0.113
24,HMIEGSSDWKPNMILDDGGDLTKIIHEEYQDLLDDIRGLSEETTTGVLRLYEMEKENSLAVPAINVND,-0.578
25,HMIEKGSDALEKELRKNNLSINEFLTNKNIDIILDELKLKDIDDLYVNIALGKYTPNQIIKIVNK,-0.61
26,HMIELEGVISSVLAGTMFKVKLRGNGHEVLAHISGKMRKKFIRLVIGDAVKIEMSPYDMDKARIVYRI,0.269
27,HMIELTTDYKKRVVEALVSARENYSGSDSDFARKWSIDKTVYSRLKKGYQEGLLSVGKYIELGMELNVSSR,0.0127
28,HMIENITIELNKKALALDFELNKDLPEGVLETIPTLVSLMVRFDPLTVSYHFLRDYIDALLESNLNVDL,-0.56
29,HMIENMQEYVRHIRAAVSDRLDLTREVEDDEIREVISQIVAEESRQNYLSLGERQTVIETVFNSMR,-2.17
30,HMIERLVEFVHTLRHSGVRVSMAEAMDAAEALRHTPITERQIFKTALQSVLVKEHQDIPAFDAAFERFFL,-0.728
